Data from patent publication US20030171565.

Test system: protein zero related (PZR), tyrosine-phosphorylated
Sequence (chain, as listed by the source): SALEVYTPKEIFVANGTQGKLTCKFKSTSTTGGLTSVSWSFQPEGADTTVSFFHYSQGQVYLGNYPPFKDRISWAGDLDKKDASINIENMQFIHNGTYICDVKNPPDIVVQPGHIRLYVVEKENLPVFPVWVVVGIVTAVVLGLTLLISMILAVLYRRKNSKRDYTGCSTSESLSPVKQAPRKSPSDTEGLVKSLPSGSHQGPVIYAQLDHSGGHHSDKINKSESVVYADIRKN

Question: tyrosine phosphatase SHP-1 was tested. Which “dephosphorylation of purified p43 in vitro (anti-phosphotyrosine Western blot)” value did it give?
Answer: The value was “SHP-1 only produced a partial dephosphorylation”.
